Assay results from patent US20040151724A1 (published 2004).

Target: T1, MUC1 (UniProt P15941 24-1255, limits assumed)
T1 construct: whole, on cells; also called B16MUC1; C57MUC1
Test: flow cytometry of Fab on C57MUC1 cells (murine + MUC1)

T1 sequence (P15941 24-1255 limits assumed): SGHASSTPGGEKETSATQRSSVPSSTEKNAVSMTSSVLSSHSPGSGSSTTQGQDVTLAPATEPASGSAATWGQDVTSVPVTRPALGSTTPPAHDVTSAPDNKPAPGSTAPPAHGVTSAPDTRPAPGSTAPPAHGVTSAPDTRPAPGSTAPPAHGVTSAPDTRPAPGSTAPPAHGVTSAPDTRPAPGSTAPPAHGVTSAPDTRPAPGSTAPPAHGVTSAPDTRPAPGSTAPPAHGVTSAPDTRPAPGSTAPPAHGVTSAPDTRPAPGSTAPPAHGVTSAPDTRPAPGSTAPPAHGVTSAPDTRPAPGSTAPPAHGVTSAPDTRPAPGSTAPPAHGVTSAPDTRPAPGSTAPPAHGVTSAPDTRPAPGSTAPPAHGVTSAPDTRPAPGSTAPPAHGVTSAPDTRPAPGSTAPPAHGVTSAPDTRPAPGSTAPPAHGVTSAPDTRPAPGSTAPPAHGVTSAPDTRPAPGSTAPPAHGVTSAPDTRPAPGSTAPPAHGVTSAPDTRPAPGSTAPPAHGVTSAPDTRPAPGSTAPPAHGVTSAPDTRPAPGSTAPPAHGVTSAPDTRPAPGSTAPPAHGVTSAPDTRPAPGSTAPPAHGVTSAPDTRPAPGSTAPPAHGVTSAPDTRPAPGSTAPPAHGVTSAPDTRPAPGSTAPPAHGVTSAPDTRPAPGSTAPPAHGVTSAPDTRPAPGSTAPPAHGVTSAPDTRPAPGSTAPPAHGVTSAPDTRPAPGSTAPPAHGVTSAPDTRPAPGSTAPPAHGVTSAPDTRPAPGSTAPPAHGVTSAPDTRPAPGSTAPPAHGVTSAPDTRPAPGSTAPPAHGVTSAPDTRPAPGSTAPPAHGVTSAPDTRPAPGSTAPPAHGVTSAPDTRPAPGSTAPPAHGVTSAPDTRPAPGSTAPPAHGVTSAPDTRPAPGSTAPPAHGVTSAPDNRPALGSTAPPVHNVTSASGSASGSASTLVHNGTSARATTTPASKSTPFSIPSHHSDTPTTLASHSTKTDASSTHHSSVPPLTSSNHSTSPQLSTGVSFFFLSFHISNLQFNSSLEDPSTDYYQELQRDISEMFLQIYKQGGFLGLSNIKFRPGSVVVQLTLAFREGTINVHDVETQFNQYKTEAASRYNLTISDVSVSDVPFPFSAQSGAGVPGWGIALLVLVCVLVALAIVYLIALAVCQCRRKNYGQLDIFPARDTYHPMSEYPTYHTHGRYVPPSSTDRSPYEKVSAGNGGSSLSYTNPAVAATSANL

B1: Fab 14.6.20 (Fab, V domains shown)
VH: EVQLVQSGGGLVQPGGSLRLSCTASGFIFNNYAMSWVRQAPGKGLEWVSGISTGGSSTYHADSVKGRFTISRDNFKKTLWLQMNSLTPEDAAVYYCARHANFWNGYLEKGAIDYWGQGTLVTVSS
VL: ELQMTQSPSTLSASVGDRVTITCRASHSVSGWLAWYQQKPGKAPKLLSYEPSSLESGVPSRFSGSGSGTEFTLTISSLQPEDFATYYCQESYRITSLTFGGGTKVETRR
notes: also called Fab clone 14.6.20
Q: Does B1 bind?
A: Result: no binding
